# Laboratory results from US20170298124A1, “ANTIBODIES AGAINST PATHOLOGICAL FORMS OF TDP-43 AND USES THEREOF” (Academia Sinica, published 2017).
# Tests used:
# [1] = molecular target: TDP-43s short-form TDP-43 (RRM1-RRM2) (Mus musculus, UniProt Q921F2 Q921F2:101-265); experiment: intrinsic fluorescence titration (ex 280, em 350 nm), 1.5 uM protein, 30 mM Tris-HCl pH 8; settings: tags: prepared per Kuo et al 2009
# [2] = molecular target: TDP-43 full-length (oligomers) (Homo sapiens, UniProt Q13148 Q13148:1-414); experiment: intrinsic fluorescence titration (ex 280, em 350 nm), 1.5 uM protein, 30 mM Tris-HCl pH 8; residual binding may come from minor monomer population; settings: chain copies: oligomer (stated); 1:1 stoichiometry of TDP-43 and ssDNA from fit
# Sequence of TDP-43 full-length (oligomers) (Q13148 whole entry, one chain of several): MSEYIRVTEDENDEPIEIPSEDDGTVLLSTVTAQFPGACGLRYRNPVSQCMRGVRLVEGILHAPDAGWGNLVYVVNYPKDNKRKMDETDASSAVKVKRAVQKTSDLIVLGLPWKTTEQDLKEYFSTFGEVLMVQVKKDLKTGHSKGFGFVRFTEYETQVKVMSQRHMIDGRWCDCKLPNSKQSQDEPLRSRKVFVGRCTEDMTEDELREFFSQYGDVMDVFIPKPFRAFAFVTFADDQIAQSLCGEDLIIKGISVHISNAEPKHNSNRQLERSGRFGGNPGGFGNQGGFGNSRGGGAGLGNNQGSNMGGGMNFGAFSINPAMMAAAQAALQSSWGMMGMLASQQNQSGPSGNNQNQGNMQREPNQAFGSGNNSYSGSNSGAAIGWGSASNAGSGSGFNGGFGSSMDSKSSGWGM
Binder,Kd [1],Kd [2]
TGGGTCTCTCTG (ssDNA) [TAR DNA B-site],0.38 µM,6.27 µM
CTTTTTGCCTGT (ssDNA) [TAR DNA A-site],0.2 µM,7.05 µM
